# Target: esr1_human ESR1 (UniProt P03372)
# Sequence (P03372 whole entry): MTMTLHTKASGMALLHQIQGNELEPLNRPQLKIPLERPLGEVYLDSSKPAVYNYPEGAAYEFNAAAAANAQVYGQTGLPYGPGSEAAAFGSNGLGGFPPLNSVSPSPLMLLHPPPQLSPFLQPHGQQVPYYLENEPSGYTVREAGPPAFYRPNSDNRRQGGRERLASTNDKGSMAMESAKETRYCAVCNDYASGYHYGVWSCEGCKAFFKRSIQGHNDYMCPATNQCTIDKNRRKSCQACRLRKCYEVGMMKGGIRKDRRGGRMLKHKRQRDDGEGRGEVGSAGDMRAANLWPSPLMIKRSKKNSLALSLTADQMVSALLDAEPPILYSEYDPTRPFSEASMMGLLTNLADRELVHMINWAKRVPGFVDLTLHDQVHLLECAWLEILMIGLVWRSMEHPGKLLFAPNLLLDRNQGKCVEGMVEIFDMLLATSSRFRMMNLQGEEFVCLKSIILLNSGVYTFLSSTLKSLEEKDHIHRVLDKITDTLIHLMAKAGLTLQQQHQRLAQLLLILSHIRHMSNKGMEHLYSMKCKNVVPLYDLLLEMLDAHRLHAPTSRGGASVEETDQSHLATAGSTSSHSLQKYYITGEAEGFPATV
substance,measurement,value
"Nuclear receptor coactivator 2 (Homo sapiens), Q15596 L644A;L645A;L693A;L694A;L748A;L749A",effect of a mutation on the interaction,disrupting interaction

# From IntAct's records for PubMed 11265755
